# Experimental data taken from patent US20110251266, “APTAMER FOR NGF AND USE THEREOF” (Shionogi & Co., Ltd., published 2011).
# Tests used:
# [1] = target: T1, beta-NGF (nerve growth factor) (Homo sapiens, UniProt P01138 P01138:122-241); test: SPR; blocks NGF-TrkA and NGF-P75; settings: tags: R&D Systems; chain copies: 2
# Procedure: As directed in BIAcore Company's protocol, Protein A (21181, PIERCE) was immobilized on a CM5 sensor chip. About 1100 RU of human Trk A-Fc fused with the Fc portion of IgG (175-TK, R&D systems) was immobilized thereon. As the analyte, a mixture of NGF (0.1 μM) and each aptamer (0.33 μM) was injected after being allowed to stand for 30 minutes. […] When NGF binds stronger to a receptor than an aptamer, the aptamer may be removed and NGF may bind to the receptor. […] Using the binding amount of NGF and NGF receptor without an aptamer as 100, the binding amount of NGF and NGF receptor added with an aptamer was determined as a correction value. Here, the binding amount is the RU value at the peak top of the sensorgram of BIAcore (RU value immediately after completion of NGF injection). […] A similar experiment was performed for another receptor P75 (p75-Fc; R&D systems).
# [2] = target: T1, beta-NGF (nerve growth factor); test: cell_activity; neurite outgrowth, Neuroscreen-1 cells; settings: tags: R&D Systems; chain copies: 2
# Procedure: (§1) The neurite outgrowth inhibitory activity of aptamer was evaluated by using Neuroscreen-1 cell, which is a subclone of PC-12 cells. 2500 Cells per well were cultured for one day in an RPMI-1640 medium containing 2.5% horse serum and 1.25% fetal bovine serum in a 96 well flat-bottom plate coated with collagen type IV. A mixed solution of NGF (final concentration 15 ng/ml or 1.1 nM) prereacted in a serum-free RPMI-1640 medium at room temperature or 37° C. for 30 min to 1 hr and an aptamer (final concentration 500-3 nM) was added. Two or three days later, the cytoplasm and nuclei were stained using Cellomics Neurite Outgrowth Kits (manufactured by Thermo Scientific), and neurite length per cell was measured by Cellomics ArrayScan VTI (manufactured by Thermo Scientific). With the neurite length per cell obtained by culturing the cell for 2 days with the addition of NGF alone as inhibitory activity 0%, and that of the cell obtained by NGF free culture as inhibitory activity 100%, the inhibitory activity of the aptamer was calculated from the neurite length per cell obtained by culturing with the addition of NGF and the aptamer in mixture. […] When the inhibitory activity was 0% or below, ‘0%’ is indicated. When it was not less than 100%, ‘100%’ is indicated. The 50% inhibitory concentration was determined from the concentrations at two, above and below points sandwiching the 50% inhibitory activity.
# [3] = target: T1, beta-NGF (nerve growth factor); test: cell_activity; Neuroscreen-1 neurite outgrowth; settings: tags: R&D Systems human NGF; chain copies: 2
# Procedure: as §1
# T1 sequence (P01138 122-241, one chain of several): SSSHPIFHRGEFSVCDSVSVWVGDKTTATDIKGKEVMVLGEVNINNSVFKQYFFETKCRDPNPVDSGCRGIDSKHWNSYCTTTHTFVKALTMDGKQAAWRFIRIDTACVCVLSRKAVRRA
Binder,activity [1],IC50 [2],IC50 [3]
"SEQ84 aptamer (ssRNA, 2'-F all pyrimidines) RNA: GGGAGAACUUCGACCAGAAGUGAAAGAAACUCCCGAUGAAAGAUGUAACAAACCAUAUGUGCGCAUACAUGGAUCCUC",≥ 60 % inhibition,14.6 nM,–
"SEQ51 aptamer (ssRNA, 2'-F pyrimidines) RNA: GGGAGAACUUCGACCAGAAGUUUGAAAGAAACCCAAAAAAACAACAUAUGAACUAUGUGCGCAUACAUGGAUCCUCA",–,–,11.9 nM
"SEQ46 aptamer (ssRNA, 2'-F all pyrimidines) RNA: GGGAGAACUUCGACCAGAAGUUUGAAACAAACCCAAAGUUACGCACAAAAUAUGUGCGCAUACAUGGAUCCUCA",≥ 60 % inhibition,25.4 nM,–
"SEQ55 aptamer (ssRNA, 2'-F all pyrimidines) RNA: GGGAGAACUUCGACCAGAAGUUUGAAAGAAACCCAAAAAUGAAUGCAACUAUGUGCGCAUACAUGGACCUCA",≥ 60 % inhibition,49.9 nM,–
"SEQ47 aptamer (ssRNA, 2'-F all pyrimidines) RNA: GGGAGAACUUCGACCAGAAGAAGUUUGAAAAGAACCCAAAAUGAGCAAAAUAUGUGCGCAUACAUGGAUCCUCA",≥ 60 % inhibition,14.6 nM,–
"SEQ64 aptamer (ssRNA, 2'-F pyrimidines) RNA: GGGAGAACUUCGACCAGAAGUUUGAAAGAAACCCAAAACAUUAGCACACAUAUGUGCGCAUACAUGGAUCCUCA",–,–,4.8 nM
"SEQ37 aptamer (ssRNA, 2'-F pyrimidines) RNA: GGGAGAACUUCGACCAGAAGUUUGAAAGAAACCCAAAGGUGAAACAACAAUAUGUGCGCAUACAUGGAUCCUCA",–,–,6.6 nM
"SEQ42 aptamer (ssRNA, 2'-F pyrimidines) RNA: GGGAGAACUUCGACCAGAAGUUUGAAAAAAACCCAAAAGAGCAGCAGAGAUAUGUGCGCAUACAUGGAUCCUCA",–,–,6.6 nM
"SEQ45 aptamer (ssRNA, 2'-F all pyrimidines) RNA: GGGAGAACUUCGACCAGAAGAGAAUGAAACUCCCAAAUCAAGGACAAUGAUAUGUGCGCAUACAUGGAUCCUCA",≥ 60 % inhibition,20.2 nM,–
"UGUGGAGCUGCUUAAACAAGCAAGUGAAAAAAACCACA (ssRNA, 2'-F pyrimidines) [SEQ32 aptamer]",–,–,84.7 nM
"GGGAUAAAAAUAGAGUUUGAUAAACACCUGUAUUAAAACCC (ssRNA, 2'-F pyrimidines) [SEQ30 aptamer]",–,–,57.6 nM
"GGGAUAAAAAUAGAGUUUGAUAAACACCUGUAUUAAAACCC (ssRNA, 2'-F pyrimidines and some purines, 2'-OMe at many purines as printed in p174, 5' and 3' idT) [SEQ30(5)]",–,–,< 100 nM
"GGGAUAAAAAUAGAGUUUGAUAAACACCUGUAUUAAAACCC (ssRNA, 2'-F pyrimidines and some purines, 2'-OMe at most purines including g1-g3 as printed in p174, 5' and 3' idT) [SEQ30(6)]",–,–,58.9 nM
"SEQ59 aptamer (ssRNA, 2'-F all pyrimidines) RNA: GGGAGAACUUCGACCAGAAGUCGAAACGUUUGAAAAAAACCCAAGGAGGAUAUGUGCGCAUACAUGGAUCCUCA",≥ 60 % inhibition,71.5 nM,–
"SEQ83 aptamer (ssRNA, 2'-F pyrimidines) RNA: GGGAGAACUUCGACCAGAAGUUGAAGCUUGAAAAAAACCCAGGAUUAAACAGACAGUAUGUGCGCAUACAUGGAUCCUC",–,–,7.1 nM
"SEQ48 aptamer (ssRNA, 2'-F all pyrimidines) RNA: GGGAGAACUUCGACCAGAAGUUUGAAAAGAACCCGAAAAACGCAUAAUAAUAUGUGCGCAUACAUGGAUCCUCA",≥ 60 % inhibition,46.4 nM,–
"SEQ66 aptamer (ssRNA, 2'-F all pyrimidines) RNA: GGGAGAACUUCGACCAGAAGUUUGAAAAAAACCCAAAGCAAGCACAACAUUAUGUGCGCAUACAUGGAUCCUCA",≥ 60 % inhibition,< 10 nM,–
"SEQ53 aptamer (ssRNA, 2'-F all pyrimidines) RNA: GGGAGAACUUCGACCAGAAGUUUGAAAGGAACCCAAAAACACAAAAUGUCUAUGUGCGCAUACAUGGAUCCUCA",≥ 60 % inhibition,< 10 nM,–

Binder,activity [1],IC50 [2],IC50 [3]
"SEQ6 aptamer (ssRNA, 2'-F pyrimidines) RNA: GGGAAGCCUGUGGAGCUGCAGGAUGAAAAAAACCCAAAAUUAAAUAAAAAAUAGACGGUGCAUUGUCACCAACAACUGG",–,–,17.7 nM
"SEQ52 aptamer (ssRNA, 2'-F pyrimidines) RNA: GGGAGAACUUCGACCAGAAGUUUGAAAGAAACCCAAAUAUACAAAACACUAUGUGCGCAUACAUGGAUCCUCA",–,–,6.7 nM
"SEQ61 aptamer (ssRNA, 2'-F all pyrimidines) RNA: GGGAGAACUUCGACCAGAAGGUCGUAACGAAUAAAACUCCUGCACAAAAAUAUGUGCGCAUACAUGGAUCCUCA",≥ 60 % inhibition,20.7 nM,–
"SEQ57 aptamer (ssRNA, 2'-F pyrimidines) RNA: GGGAGAACUUCGACCAGAAGUUUGAAAAAAACCCAAACACCGAAGCACAAAUAUGUGCGCAUACAUGGAUCCUCA",–,–,6.4 nM
"SEQ54 aptamer (ssRNA, 2'-F pyrimidines) RNA: GGGAGAACUUCGACCAGAAGUCGAAAGUGAAAGAAACUCCAACGAAAGCAUAUGUGCGCAUACAUGGAUCCUCA",–,–,7.6 nM
"SEQ49 aptamer (ssRNA, 2'-F pyrimidines) RNA: GGGAGAACUUCGACCAGAAGUGAAAGAAACUCCCAAGACGGUAACGAAAGUAUGUGCGCAUACAUGGAUCCUCA",–,–,4.6 nM
"SEQ56 aptamer (ssRNA, 2'-F all pyrimidines) RNA: GGGAGAACUUCGACCAGAAGUGAAAGAAACUCCCAACACAAAUGCACAACUAUGUGCGCAUACAUGGAUCCUCA",–,18.8 nM,–
"SEQ50 aptamer (ssRNA, 2'-F all pyrimidines) RNA: GGGAGAACUUCGACCAGAAGUGAAAAAACCUCCCAAUACAAACACAAAAAUAUGUGCGCAUACAUGGAUCCUCA",≥ 60 % inhibition,25.4 nM,–
"SEQ39 aptamer (ssRNA, 2'-F pyrimidines) RNA: GGGAGAACUUCGACCAGAAGUGUGAAAAGAACCCAAAUAAAACAACAAUGUAUGUGCGCAUACAUGGAUCCUCA",–,–,6.3 nM
"SEQ65 aptamer (ssRNA, 2'-F all pyrimidines) RNA: GGGAGAACUUCGACCAGAAGUGUGAAAAAAACCCAAAUCGAGCACAAAAUUAUGUGCGCAUACAUGGAUCCUCA",≥ 60 % inhibition,22.2 nM,–
"SEQ63 aptamer (ssRNA, 2'-F all pyrimidines) RNA: GGGAGAACUUCGACCAGAAGAUUUGAAAGAAACCCAAACUAAGCACAAAAUAUGUGCGCAUACAUGGAUCCUCA",≥ 60 % inhibition,< 10 nM,–
"SEQ43 aptamer (ssRNA, 2'-F all pyrimidines) RNA: GGGAGAACUUCGACCAGAAGCUUGAAAAAACCCCAAUAUGAGAAUCAUAUAUGUGCGCAUACAUGGAUCCUCA",≥ 60 % inhibition,< 10 nM,–
"GGGAAGCCUGUGGAGCUGCAGGAUGAAAAAAACCCAAA (ssRNA, 2'-F pyrimidines and a23, 2'-OMe at g1 g2 a4 a5 g6 g10 g12 g13 a14 g15 g18 a20 g21 g22 a29-a32 a36-a38, 5' and 3' idT) [SEQ35(6)]",–,–,73.5 nM
"GGGAAGCCUGUGGAGCUGCAGGAUGAAAAAAACCCAAA (ssRNA, 2'-F pyrimidines, 2'-OMe at a4 a5 g6 g10 g12 g13 a14 g15 g18 a20 g21 g22, 5' and 3' idT) [SEQ35(1)]",–,–,94.7 nM
"GGGAAGCCUGUGGAGCUGCAGGAUGAAAAAAACCCAAA (ssRNA, 2'-F pyrimidines, 2'-OMe at g1 g2 a4 a5 g6 g10 g12 g13 a14 g15 g18 a20 g21 g22 a29-a32 a36-a38, 5' and 3' idT) [SEQ35(5)]",–,–,79.8 nM
"SEQ5 aptamer (ssRNA, 2'-F pyrimidines) RNA: GGGAAGCCUGUGGAGCUGCUUAAACAAGCAAGUGAAAAAAACCACAGCAAAUGUAAAAAGCAUUGUCACCAACAACUGG",–,–,21 nM
"SEQ38 aptamer (ssRNA, 2'-F pyrimidines) RNA: GGGAGAACUUCGACCAGAAGAGAAUGAAACUCCACAAAGUACAUAAAACAUAUGUGCGCAUACAUGGAUCCUCA",–,–,7.3 nM
"SEQ12 aptamer (ssRNA, 2'-F pyrimidines) RNA: GGGAAGCCUGUGGAGCUGCGAAACAGUGAAACAAACCACAGACUGAGAAAGCAGUAACAGCAUUGUCACCAACAACUGG",–,–,43.4 nM
